Test results reported in patent US20220073631A1.

Columns and labels:
[1] = biological target: hIL-4Rα-ECD (wild-type hIL-4Rα extracellular domain with C-terminus his-tag) (human) (UniProt P24394); assay: SPR, Biacore T200, by the methods of Example 2; mean of three experiments
[2] = biological target: human IL-4Rα (Shanghai Novoprotein Technology Co., Ltd) (human) (UniProt P24394); assay: SPR, Biacore T200, antibody captured on protein A, antigen as analyte, 25 C, 1:1 model

Kd [1]: 58.8 pM
koff [1]: 4.29e-05 s⁻¹
kon [1]: 707000 M⁻¹ s⁻¹
Kd [2]: 136 pM
koff [2]: 0.00011 s⁻¹
kon [2]: 808000 M⁻¹ s⁻¹
B1: Dupilumab (antibody, INN chains, looked up, V domains shown)
VH: EVQLVESGGGLEQPGGSLRLSCAGSGFTFRDYAMTWVRQAPGKGLEWVSSISGSGGNTYYADSVKGRFTISRDNSKNTLYLQMNSLRAEDTAVYYCAKDRLSITIRPRYYGLDVWGQGTTVTVSS
VL: DIVMTQSPLSLPVTPGEPASISCRSSQSLLYSIGYNYLDWYLQKSGQSPQLLIYLGSNRASGVPDRFSGSGSGTDFTLKISRVEAEDVGFYYCMQALQTPYTFGQGTKLEIKR
